From article PMC9246715, “Bacillus subtilis biofilm matrix components target seed oil bodies to promote growth and anti-fungal resistance in melon” (Nature Microbiology, 2022) come the findings set out here.

The data set deals with the molecule itself. In words: thioflavin T fluorescence (polymerization kinetics) + TEM; purified TasA 0.4 or 0.2 mg/ml in buffer (20 mM Tris, 50 mM NaCl, pH 7) or seed apoplastic fluid, 20 µM ThT, 30 °C, shaking.

B1: amyloid protein TasA (natural protein, B. subtilis, UniProt P54507 28-261, looked up)
chain: AFNDIKSKDATFASGTLDLSAKENSASVNLSNLKPGDKLTKDFQFENNGSLAIKEVLMALNYGDFKANGGSNTSPEDFLSQFEVTLLTVGKEGGNGYPKNIILDDANLKDLYLMSAKNDAAAAEKIKKQIDPKFLNASGKVNVATIDGKTAPEYDGVPKTPTDFDQVQMEIQFKDDKTKDEKGLMVQNKYQGNSIKLQFSFEATQWNGLTIKKDHTDKDGYVKENEKAHSEDKN
notes: TasA, amyloid protein of the extracellular matrix of Bacillus subtilis biofilms; also called purified TasA
As for B1, the binding result was “binds”.
